Laboratory results taken from US20120244578A1 (Amgen, published 2012).

Key:
human FcRn = target: T1, human FcRn (human, UniProt P55899 24-297; P61769 21-119, limits assumed); assay: BIAcore solution competition (FIG. 6)
T1 construct: also called neonatal Fc-receptor
Method: (§1) BIAcore analysis of human and mouse FcRn binding to Fc mutant #1 (Fc K392D-K409D, dimer), #2 (Fc K392D-K409D-Y349T, monomeric SEC profile) and #6 (Fc K392D-K409D-Y349T, monomeric SEC profile) using a BIAcore3000 instrument. CHO cell produced huFc was immobilized on follow cell 2 (Fc2) on a CM5 chip. Fc1 was used as background control. 2 nM human FcRn were incubated with 1, 10, 100 nM of indicated Fc variants for one hour before injected to the CHO huFc surface. Reduced binding of FcRn to the immobilized CHO huFc indicates binding of FcRn to the Fc variants in solution. 2 nM mouse FcRn were incubated with 0.1, 1, 10 nM of Fc variants for one hour before injected to the CHO huFc surface.

mouse FcRn = target: T2, mouse FcRn (mouse, UniProt Q61559 22-297; P01887 21-119, limits assumed); assay: BIAcore solution competition (FIG. 6)
T2 sequence (looked up): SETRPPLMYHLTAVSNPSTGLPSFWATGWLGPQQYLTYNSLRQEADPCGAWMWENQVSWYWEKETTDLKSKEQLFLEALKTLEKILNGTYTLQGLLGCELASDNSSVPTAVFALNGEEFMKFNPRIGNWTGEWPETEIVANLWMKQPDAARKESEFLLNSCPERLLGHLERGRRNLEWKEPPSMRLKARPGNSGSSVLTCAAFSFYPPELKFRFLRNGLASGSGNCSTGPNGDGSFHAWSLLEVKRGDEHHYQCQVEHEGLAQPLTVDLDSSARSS
T2 sequence (b2m, looked up): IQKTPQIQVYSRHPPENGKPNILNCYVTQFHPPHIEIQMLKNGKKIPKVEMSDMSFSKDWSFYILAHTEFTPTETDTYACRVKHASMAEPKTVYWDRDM
Method: as §1

T1 sequence (P55899 24-297 limits assumed, chain 1 of 2): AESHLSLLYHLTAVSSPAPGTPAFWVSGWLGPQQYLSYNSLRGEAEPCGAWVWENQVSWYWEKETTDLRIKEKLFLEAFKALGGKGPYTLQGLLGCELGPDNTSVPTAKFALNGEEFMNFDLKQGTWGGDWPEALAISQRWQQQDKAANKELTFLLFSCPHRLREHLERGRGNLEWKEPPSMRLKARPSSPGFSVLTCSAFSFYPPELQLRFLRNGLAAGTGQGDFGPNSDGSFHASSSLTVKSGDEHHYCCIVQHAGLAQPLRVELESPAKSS
T1 sequence (P61769 21-119 limits assumed, chain 2 of 2): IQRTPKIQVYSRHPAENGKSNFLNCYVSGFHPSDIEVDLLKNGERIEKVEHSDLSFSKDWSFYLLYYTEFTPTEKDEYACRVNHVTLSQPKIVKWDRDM

B1: hu IgG1 Fc K392D K409D Y349T (construct 2 of Table 2) (other, human, UniProt P01857-1 114-330, looked up, name in EU numbering)
chain: APELLGGPSVFLFPPKPKDTLMISRTPEVTCVVVDVSHEDPEVKFNWYVDGVEVHNAKTKPREEQYNSTYRVVSVLTVLHQDWLNGKEYKCKVSNKALPAPIEKTISKAKGQPREPQVTTLPPSRDELTKNQVSLTCLVKGFYPSDIAVEWESNGQPENNYDTTPPVLDSDGSFFLYSDLTVDKSRWQQGNVFSCSVMHEALHNHYTQKSLSLSPGK
notes: domain: Fc; Monomer by SEC and AUC; also called Fc mutant #2; Monomer Fc
- binding result (human FcRn): binds
- binding result (mouse FcRn): binds
